Data: article PMC5171582, “Translational regulation of APOBEC3G mRNA by Vif requires its 5′UTR and contributes to restoring HIV-1 infectivity” (Scientific Reports, 2016)

Target: T1, HA-tagged APOBEC3G (human, UniProt Q9HC16 1-384)
T1 construct: APOBEC3G (A3G), human cytidine deaminase, expressed from pA3G-HA; The plasmid pA3G-HA is not described in the Plasmids section; also called A3G-HA; A3G; source: HEK 293T, transfected (pA3G-HA), in lysate
Experiment: co-IP; HEK 293T cells co-transfected with pA3G-HA and wild-type or mutant Vif plasmids; lysed in RIPA 1X 24 h post-transfection; anti-HA antibody 2 h at 4 °C, protein A Dynabeads 1.5 h at 4 °C, 5 washes with cold RIPA; western blot with anti-Vif
Settings: partners not purified

T1 sequence (Q9HC16 whole entry): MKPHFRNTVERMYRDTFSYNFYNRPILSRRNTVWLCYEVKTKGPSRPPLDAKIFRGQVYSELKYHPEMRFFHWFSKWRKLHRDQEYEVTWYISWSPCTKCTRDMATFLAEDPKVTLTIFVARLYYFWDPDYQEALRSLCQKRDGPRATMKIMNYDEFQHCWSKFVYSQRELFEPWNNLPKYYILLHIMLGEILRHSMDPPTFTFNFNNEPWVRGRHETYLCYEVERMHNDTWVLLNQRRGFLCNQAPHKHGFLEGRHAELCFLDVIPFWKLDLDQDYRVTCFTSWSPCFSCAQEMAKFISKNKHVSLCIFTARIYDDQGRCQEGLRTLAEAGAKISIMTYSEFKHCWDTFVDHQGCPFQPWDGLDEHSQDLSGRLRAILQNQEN

B1: Vif H42/43N (natural protein)
chain: not shown
notes: Vif of HIV-1 NL4.3 (codon-optimized pcDNAhVif) with the mutations H42N and H43N; also called H42/H43-N; Vif mutant H42/43N; source: HEK 293T, transfected (pcDNAhVif mutant), in lysate
  fold decrease of binding against wild-type Vif: ~2 fold
